Measured values published in ChEMBL document CHEMBL1135258, “Substrate spectrum of tyrocidine thioesterase probed with randomized peptide N-acetylcysteamine thioesters” (Bioorg Med Chem Lett, 2002).

Key:
Conditions in all cases: Brevibacillus brevis
[1] = substrate: CC(=O)NCCSC(=O)[C@H](CC(C)C)NC(=O)[C@H](CCCN)NC(=O)[C@@H](NC(=O)[C@H](Cc1ccc(O)cc1)NC(=O)[C@H](CCC(N)=O)NC(=O)[C@H](CC(N)=O)NC(=O)[C@H](CCCCN)NC(=O)[C@H](Cc1ccccc1)NC(=O)[C@@H]1CCCN1C(=O)[C@H](N)Cc1ccccc1)C(C)C; assay: (§1) Apparent kinetic constant (Km) determined for tyrocidine thioesterase amplified from Bacillus brevis (ATCC8185)
[2] = substrate: CC(=O)NCCSC(=O)[C@H](CC(C)C)NC(=O)[C@H](CCCN)NC(=O)[C@@H](NC(=O)[C@H](Cc1ccc(O)cc1)NC(=O)[C@H](CCC(N)=O)NC(=O)[C@H](CC(N)=O)NC(=O)[C@H](CS)NC(=O)[C@H](Cc1ccccc1)NC(=O)[C@@H]1CCCN1C(=O)[C@H](N)Cc1ccccc1)C(C)C; assay: as §1
[3] = substrate: CC(=O)NCCSC(=O)[C@H](CC(C)C)NC(=O)[C@H](CCCN)NC(=O)[C@@H](NC(=O)[C@H](Cc1ccc(O)cc1)NC(=O)[C@H](CCC(N)=O)NC(=O)[C@H](CC(N)=O)NC(=O)[C@@H](Cc1ccccc1)NC(=O)[C@H](CC(N)=O)NC(=O)[C@@H]1CCCN1C(=O)[C@H](N)Cc1ccccc1)C(C)C; assay: as §1
[4] = substrate: CC(=O)NCCSC(=O)[C@H](CC(C)C)NC(=O)[C@H](CCCN)NC(=O)[C@@H](NC(=O)[C@H](Cc1ccc(O)cc1)NC(=O)[C@H](CCC(N)=O)NC(=O)[C@H](CC(N)=O)NC(=O)[C@H](CCC(=O)O)NC(=O)[C@H](Cc1ccccc1)NC(=O)[C@@H]1CCCN1C(=O)[C@H](N)Cc1ccccc1)C(C)C; assay: as §1
[5] = substrate: CC(=O)NCCSC(=O)[C@H](CC(C)C)NC(=O)[C@H](CCCN)NC(=O)[C@@H](NC(=O)[C@H](Cc1ccc(O)cc1)NC(=O)[C@H](CCC(N)=O)NC(=O)[C@H](CC(N)=O)NC(=O)[C@@H](Cc1ccccc1)NC(=O)[C@H](Cc1ccccc1)NC(=O)[C@H](CC(N)=O)NC(=O)[C@H](N)Cc1ccccc1)C(C)C; assay: as §1
[6] = substrate: CC(=O)NCCSC(=O)[C@H](CC(C)C)NC(=O)[C@H](CCCN)NC(=O)[C@@H](NC(=O)[C@H](Cc1ccc(O)cc1)NC(=O)[C@H](CC(N)=O)NC(=O)[C@H](CC(N)=O)NC(=O)[C@@H](Cc1ccccc1)NC(=O)[C@H](Cc1ccccc1)NC(=O)[C@@H]1CCCN1C(=O)[C@H](N)Cc1ccccc1)C(C)C; assay: as §1
[7] = substrate: CC(=O)NCCSC(=O)[C@H](CC(C)C)NC(=O)[C@H](CCCN)NC(=O)[C@@H](NC(=O)[C@H](Cc1ccc(O)cc1)NC(=O)[C@H](CCC(N)=O)NC(=O)[C@H](CC(N)=O)NC(=O)[C@@H]1CCCN1C(=O)[C@H](Cc1ccccc1)NC(=O)[C@@H]1CCCN1C(=O)[C@H](N)Cc1ccccc1)C(C)C; assay: as §1
[8] = substrate: CC(=O)NCCSC(=O)[C@H](CC(C)C)NC(=O)[C@H](CCCN)NC(=O)[C@@H](NC(=O)[C@H](Cc1ccc(O)cc1)NC(=O)[C@H](CCC(N)=O)NC(=O)[C@H](CC(N)=O)NC(=O)CNC(=O)[C@H](Cc1ccccc1)NC(=O)[C@@H]1CCCN1C(=O)[C@H](N)Cc1ccccc1)C(C)C; assay: as §1
[9] = substrate: CC(=O)NCCSC(=O)[C@H](CC(C)C)NC(=O)[C@H](CCCN)NC(=O)[C@@H](NC(=O)[C@H](Cc1ccc(O)cc1)NC(=O)[C@H](CCC(N)=O)NC(=O)[C@H](CC(N)=O)NC(=O)[C@H](CO)NC(=O)[C@H](Cc1ccccc1)NC(=O)[C@@H]1CCCN1C(=O)[C@H](N)Cc1ccccc1)C(C)C; assay: as §1
[10] = substrate: CC(=O)NCCSC(=O)[C@H](CC(C)C)NC(=O)[C@H](CCCN)NC(=O)[C@@H](NC(=O)[C@H](Cc1ccc(O)cc1)NC(=O)[C@@H](NC(=O)[C@H](CC(N)=O)NC(=O)[C@@H](Cc1ccccc1)NC(=O)[C@H](Cc1ccccc1)NC(=O)[C@@H]1CCCN1C(=O)[C@H](N)Cc1ccccc1)C(C)C)C(C)C; assay: as §1
[11] = substrate: CC[C@H](C)[C@H](NC(=O)[C@H](Cc1ccccc1)NC(=O)[C@@H]1CCCN1C(=O)[C@H](N)Cc1ccccc1)C(=O)N[C@@H](CC(N)=O)C(=O)N[C@@H](CCC(N)=O)C(=O)N[C@@H](Cc1ccc(O)cc1)C(=O)N[C@H](C(=O)N[C@@H](CCCN)C(=O)N[C@@H](CC(C)C)C(=O)SCCNC(C)=O)C(C)C; assay: as §1
[12] = substrate: CC(=O)NCCSC(=O)[C@H](CC(C)C)NC(=O)[C@H](CCCN)NC(=O)[C@@H](NC(=O)[C@H](Cc1ccc(O)cc1)NC(=O)[C@H](CCC(N)=O)NC(=O)[C@H](CC(N)=O)NC(=O)[C@H](Cc1c[nH]c2ccccc12)NC(=O)[C@H](Cc1ccccc1)NC(=O)[C@@H]1CCCN1C(=O)[C@H](N)Cc1ccccc1)C(C)C; assay: as §1
[13] = substrate: CC(=O)NCCSC(=O)[C@H](CC(C)C)NC(=O)[C@H](CCCN)NC(=O)[C@@H](NC(=O)[C@H](Cc1ccc(O)cc1)NC(=O)[C@H](CCC(N)=O)NC(=O)[C@H](CC(N)=O)NC(=O)[C@H](Cc1ccc(O)cc1)NC(=O)[C@H](Cc1ccccc1)NC(=O)[C@@H]1CCCN1C(=O)[C@H](N)Cc1ccccc1)C(C)C; assay: as §1
[14] = substrate: CC(=O)NCCSC(=O)[C@H](CC(C)C)NC(=O)[C@H](CCCN)NC(=O)[C@@H](NC(=O)[C@H](Cc1ccc(O)cc1)NC(=O)[C@H](CCC(N)=O)NC(=O)[C@H](CC(N)=O)NC(=O)[C@@H](NC(=O)[C@H](Cc1ccccc1)NC(=O)[C@@H]1CCCN1C(=O)[C@H](N)Cc1ccccc1)C(C)C)C(C)C; assay: as §1
[15] = substrate: CC(=O)NCCSC(=O)[C@H](CC(C)C)NC(=O)[C@H](CCCN)NC(=O)[C@@H](NC(=O)[C@H](CC(N)=O)NC(=O)[C@H](CCC(N)=O)NC(=O)[C@H](CC(N)=O)NC(=O)[C@@H](Cc1ccccc1)NC(=O)[C@H](Cc1ccccc1)NC(=O)[C@@H]1CCCN1C(=O)[C@H](N)Cc1ccccc1)C(C)C; assay: as §1

B1: Thioesterase GrsT homolog tycF (Brevibacillus brevis), O30412 (protein)
chain: MKLFCFPYAGGLPGIYYSWKSRLPPTFLEIDAFEVRPHIPQPNRDVFLPTSFYELLEDVCDRITPALTETPFAFFGHSMGGLVAFELTRKLMQKGAPLPQHLFLSASRAPHAYGKLAKTYNLPHDEFVEALRKLGGTPDDVLENQELLELFLPILRADFQAVQTYEMNPDLPRQVPVNMTVLYGTEDTIALEDIWAWRDYCQGACQFFPVSGGHFFIHHQTSPILEIIQNVLKEEKTVAIHSSF
Km [1]: 15 µM | Km [2]: 27 µM | Km [3]: 172 µM | Km [4]: 12 µM | Km [5]: 82 µM | Km [6]: 112 µM | Km [7]: 132 µM | Km [8]: 22 µM | Km [9]: 14 µM | Km [10]: 54 µM | Km [11]: 32 µM | Km [12]: 7.5 µM | Km [13]: 65 µM | Km [14]: 145 µM | Km [15]: 7.6 µM
